Where “and” joins values, the source holds several entries; their conditions need not be identical. Equal entries are not always repeated.
Molecular target: AcrIIA22 (wild type, thrombin-cleaved) (Clostridial genus CAG-217 (human gut metagenome; taxonomy inferred by the paper))
Experiment: SEC

stoichiometry N: 4 and 5
Substance: AcrIIA22 (wild type, thrombin-cleaved) (natural protein)
